B1: Azoarcus group I ribozyme (parent)
chain: GUGCCUUGCGCCGGGAAACCACGCAAGGGAUGGUGUCAAAUUCGGCGAAACCUAAGCGCCCGCCCGGGCGUAUGGCAACGCCGAGCCAAGCUUCGGCGCCUGCGCCGAUGAAGGUGUAGAGACUAGACGGCACCCACCUAAGGCAAACGCUAUGGUGAAGGCAUAGUCCAGGGAGUGGCGAAAGUCACACAAACCGG

Variants of: B1
Assay: reverse-splicing fitness (ratio to wild type); higher = more active; in vitro selection; Mg2+ level not given
Outline: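 An in vitro group I ribozyme library with randomized positions was T7-transcribed and gel-purified. In triplicate, 10 pmol RNA in EPPS pH 7.5 was reacted with 50 pmoles of a 30-nt RNA substrate for 1 h at 37 °C across several added MgCl2 levels (1–48 mM), then stopped with EDTA. Products were reverse transcribed from a substrate-complementary primer, PCR-amplified and sequenced (HiSeq 4000). Fitness is a variant's read proportion after selection over that before, normalised to wild type.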

Variant	reverse-splicing fitness
C82A A111C A120G C169A U176G	0.00465
C82A A111C A120G C169A U176A	0.0155
C82A A111C A120G C169A U176C	0.0177
C82A A111C A120U A145C C150U U176A	0.00424
C82A A111C A120U A145C C150U U176G	0.0028
C82A A111C A120U A145C C150U U176C	0.00525
C82A A111C A120G C150G C169G U176G	0.00538
C82A A111C A120G C150G C169G U176C	0.00493
C82A A111C A120G C150G C169G U176A	0.00664
C82A A111C A120G A145U C150U U176A	0.0121
C82A A111C A120G A145U C150U U176G	0.00527
C82A A111C A120G A145U C150U U176C	0.0188
C82A A111C A120U A145U C150A U176G	0.00301
C82A A111C A120U A145U C150A U176A	0.00477
C82A A111C A120U A145U C150A U176C	0.0062
C82A A111C A120U C150A C169G U176C	0.00395
C82A A111C A120U C150A C169G U176A	0.00598
C82A A111C A120U C150A C169G U176G	0.00295
C82A A111C A120G A145U C169A	0.00893
C82A A111C A120G A145U C169G	0.00868
C82A A111C A120G A145U C169U	0.00891

Variant	reverse-splicing fitness
C82A A111C A120U A145G C150U U176C	0.0108
C82A A111C A120U A145G C150U U176A	0.00986
C82A A111C A120U A145G C150U U176G	0.00369
C82A A111C A120G C150A C169G	0.00885
C82A A111C A120G C150A C169U	0.00723
C82A A111C A120G C150A C169A	0.00919
C82A A111C A120G A145U C150U C169A U176A	0.0123
C82A A111C A120G A145U C150U C169A U176C	0.00986
C82A A111C A120G A145U C150U C169A U176G	0.00604
C82A A111C A120U A145U C169U U176A	0.00262
C82A A111C A120U A145U C169U U176G	0.002
C82A A111C A120U A145U C169U U176C	0.00253
C82A A111C A120U C150A C169A	0.00599
C82A A111C A120U C150A C169G	0.00503
C82A A111C A120U C150A C169U	0.00635
C82A A111C A120U A145C C150U C169G	0.00378
C82A A111C A120U A145C C150U C169U	0.00379
C82A A111C A120U A145C C150U C169A	0.00362
C82A A111C A120U A145U C150G C169G U176G	0.00306
C82A A111C A120U A145U C150G C169G U176A	0.00314
C82A A111C A120U A145U C150G C169G U176C	0.00299

Variant	reverse-splicing fitness
C82A A111C A120G A145U C150G C169A U176C	0.00969
C82A A111C A120G A145U C150G C169A U176A	0.00941
C82A A111C A120G A145U C150G C169A U176G	0.00558
C82A A111C A120U A145G C150A C169A U176C	0.00537
C82A A111C A120U A145G C150A C169A U176A	0.00894
C82A A111C A120U A145G C150A C169A U176G	0.00349
C82A A111C A120U A145G C169U U176A	0.00527
C82A A111C A120U A145G C169U U176G	0.00234
C82A A111C A120U A145G C169U U176C	0.00417
C82A A111C A120U A145U C150G C169U U176C	0.00305
C82A A111C A120U A145U C150G C169U U176G	0.0029
C82A A111C A120U A145U C150G C169U U176A	0.0031
C82A A111C A120G A145U C169G U176C	0.012
C82A A111C A120G A145U C169G U176G	0.00481
C82A A111C A120G A145U C169G U176A	0.0102
C82A A111C A120U A145G C150A C169U U176A	0.00642
C82A A111C A120U A145G C150A C169U U176G	0.00328
C82A A111C A120U A145G C150A C169U U176C	0.00488
C82A A111C A120G C150A U176A	0.0133
C82A A111C A120G C150A U176G	0.00789
C82A A111C A120G C150A U176C	0.0233

Variant	reverse-splicing fitness
C82A A111C A120G C150G C169U U176G	0.00579
C82A A111C A120G C150G C169U U176A	0.00801
C82A A111C A120G C150G C169U U176C	0.012
C82A A111C A120U A145G C150U C169G U176C	0.00509
C82A A111C A120U A145G C150U C169G U176A	0.00597
C82A A111C A120U A145G C150U C169G U176G	0.00299
C82A A111C A120U A145U C150U C169U U176C	0.00348
C82A A111C A120U A145U C150U C169U U176A	0.00402
C82A A111C A120U A145U C150U C169U U176G	0.00288
C82A A111C A120U A145C C150G C169A U176A	0.00353
C82A A111C A120U A145C C150G C169A U176G	0.00275
C82A A111C A120U A145C C150G C169A U176C	0.00263
C82A A111C A120U A145U C150A C169A U176C	0.00334
C82A A111C A120U A145U C150A C169A U176A	0.00258
C82A A111C A120U A145U C150A C169A U176G	0.00272
C82A A111C A120U A145U C150A C169A	0.00298
C82A A111C A120U A145U C150A C169G	0.00349
C82A A111C A120U A145U C150A C169U	0.00332
C82A A111C A120G C150A C169G U176G	0.00735
C82A A111C A120G C150A C169G U176A	0.0187

Reference: the RNAGym collection of RNA variant scans (doi:10.1093/molbev/msab373)
